This note sets out measurements from patent US20210155701A1 (Chugai, published 2021).

Substitutions are numbered along the chain they refer to.

Sequences and labels used below:
B1: bC3edL1R1N164H01-G1mISHI01/VK1-39-k0MT (before protease treatment) (antibody, human IgG1, kappa, V domains shown)
VH: QVQLVESGGGLVQPGGSLRLSCAASGFTFDVYGMSWVRHSPGKGLEWVSTINWNGGSTYYAESMKGRFTISRDNAKNTVYLQMNSLKPEDTAVYYCAKFAPWDGDMEWGQGTQVTVSG
VL: DIQMTQSPSSLSASVGDRVTITCRASQSISSYLNWYQQKPGKAPKLLIYAASSLQSGVPSRFSGSGSGTDFTLTISSLQPEDFATYYCLQFDSYPLTFGGGTKVEIKR
notes: Uncleaved
B2: bC3edL1R1N160H01-G1mISHI01/VK1-39-k0MT (before protease treatment) (antibody, human IgG1, kappa, V domains shown)
VH: QVQLVESGGGLVQPGGSLRLSCAASGFTFNHCWMYWVRQAPGKGLEWVSVINTDGGSAYYADSVKGRFTISRDNAKNTLYLQMNSLKSEDTAVYYCARDWAPLVDYYYGMDYWGKGTLVTVSG
VL: B1 VL
B3: bC3edL1R1N161H01-G1mISHI01/VK1-39-k0MT (before protease treatment) (antibody, human IgG1, kappa, V domains shown)
VH: QVQLVESGGGLVQPGGSLRLSCAASGFPFDNYVMSWVRQAPGKGLEWISAISWNGGSTYYAESMKGRFTISRDNAKSTLYLQMNSLKSEDTAVYYCAKEPRVYYSGSPDYWGQGTQVTVSG
VL: B1 VL
notes: Uncleaved
B4: 20A11-G1m/VK1-39-k0MT (antibody, human IgG1, kappa, V domains shown)
VH: EVQLVESGGGLVQPGGSLRLSCAASGSVFKINVMAWYRQAPGKGRELVAGIISGGSTSYADSVKGRFTISRDNAKNTLYLQMNSLRPEDTAVYYCAFITTESDYDLGRRYWGQGTLVTVSS
VL: B1 VL
B5: 20A11-G1m/VL1-40-lamL (antibody, human IgG1, lambda, V domains shown)
VH: B4 VH
VL: QSVLTQPPSVSGAPGQRVTISCTGSSSNIGAGYDVHWYQQLPGTAPKLLIYGNSNRPSGVPDRFSGSKSGTSASLAITGLQAEDEADYYCQSYDNSLNAVVFGGGTKLTVLG
B6: 20A11-G1m/VK2-28-k0MT (antibody, human IgG1, kappa, V domains shown)
VH: B4 VH
VL: not shown
B7: 20A11-G1m/VL2-14-lamL (antibody, human IgG1, lambda, V domains shown)
VH: B4 VH
VL: QSALTQPASVSGSPGQSITISCTGTSSDVGGYNYVSWYQQHPGKAPKLMIYEVSNRPSGVSNRFSGSKSGNTASLTISGLQAEDEADYYCSSYRSGYTLVVFGGGTKLTVLG
B8: 20A11-G1m/VL1-44-lamL (antibody, human IgG1, lambda, V domains shown)
VH: B4 VH
VL: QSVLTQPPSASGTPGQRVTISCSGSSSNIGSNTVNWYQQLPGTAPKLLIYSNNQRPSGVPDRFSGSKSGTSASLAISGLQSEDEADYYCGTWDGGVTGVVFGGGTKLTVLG
B9: 20A11-G1m/VL3-21-lamL (antibody, human IgG1, lambda, V domains shown)
VH: B4 VH
VL: SYVLTQPPSVSVAPGKTARITCGGNNIGSKSVHWYQQKPGQAPVLVIYYDSDRPSGIPERFSGSNSGNTATLTISRVEAGDEADYYCQAWDSSTDVVFGGGTKLTVLG
B10: PX02-R4_017-G1mISHI01/VK1-39-k0MT (before protease treatment) (antibody, human IgG1, kappa, V domains shown)
VH: QVQLVESGGGLVQPGGSLRLSCTASGISFSISTMGWYRQAPGKQRELVATITSGGEAYYANSMKDRFTISRDNAENTVYLQMNRLKPEDSAVYYCNTKFPWSTDWNARGQGTQVTVSG
VL: B1 VL
notes: Uncleaved
B11: PX03-R2_006-G1mISHI01/VK1-39-k0MT (before protease treatment) (antibody, human IgG1, kappa, V domains shown)
VH: B10 VH with V2L, T52A, M63V, D65G
VL: B1 VL
notes: Uncleaved
B12: PX03-R4_009-G1mISHI01/VK1-39-k0MT (before protease treatment) (antibody, human IgG1, kappa, V domains shown)
VH: B10 VH with V2L, T52A, M63V, D65G, D72E, N73Y, Y79F
VL: B1 VL
notes: Uncleaved
B13: bC3edL1R1N160H01 (VHH)
VHH: B2 VH
B14: bC3edL1R1N164H01 (VHH)
VHH: B1 VH
B15: bC3edL1R1N161H01 (VHH)
VHH: B3 VH
B16: IL6R90-G1m/VK2-28-k0MT (antibody, human IgG1, kappa, V domains shown)
VH: EVQLVESGGGLVQPGGSLRLSCAASGFTFDDYGMSWVRQAPGKALEWVSAISWNGNNTYYTESMKGRFTISRDNAKNTLYLQMNSLRPEDTAVYYCVKGSTAIVGVPPTYPDEYDYWGQGTLVTVSS
VL: not shown
notes: IgG antibody-like molecule
B17: IL6R90-G1m/VL1-40-lamL (antibody, human IgG1, lambda, V domains shown)
VH: B16 VH
VL: B5 VL
notes: IgG antibody-like molecule
B18: IL6R90-G1m/VL1-44-lamL (antibody, human IgG1, lambda, V domains shown)
VH: B16 VH
VL: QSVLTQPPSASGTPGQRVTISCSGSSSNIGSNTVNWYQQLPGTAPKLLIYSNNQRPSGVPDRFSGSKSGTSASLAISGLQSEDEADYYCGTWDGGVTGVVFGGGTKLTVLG
notes: IgG antibody-like molecule
B19: IL6R90-G1m/VL2-14-lamL (antibody, human IgG1, lambda, V domains shown)
VH: B16 VH
VL: B7 VL
notes: IgG antibody-like molecule
B20: 20A11hu-G1m/VK2-28-k0MT (antibody, human IgG1, kappa, V domains shown)
VH: B4 VH with Y37V, R45L, L47W
VL: not shown
B21: 20A11hu-G1m/VL1-40-lamL (antibody, human IgG1, lambda, V domains shown)
VH: B4 VH with Y37V, R45L, L47W
VL: B5 VL
B22: 20A11hu-G1m/VL1-44-lamL (antibody, human IgG1, lambda, V domains shown)
VH: B4 VH with Y37V, R45L, L47W
VL: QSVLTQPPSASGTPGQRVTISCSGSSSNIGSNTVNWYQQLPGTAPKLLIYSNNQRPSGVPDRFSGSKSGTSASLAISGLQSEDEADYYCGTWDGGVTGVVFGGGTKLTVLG
B23: 20A11hu-G1m/VK1-39-k0MT (antibody, human IgG1, kappa, V domains shown)
VH: B4 VH with Y37V, R45L, L47W
VL: B1 VL
B24: 20A11hu-G1m/VL2-14-lamL (antibody, human IgG1, lambda, V domains shown)
VH: B4 VH with Y37V, R45L, L47W
VL: B7 VL

T3 sequence (Q9UIW2 other isoform, or with tags, fused parts or gaps limits assumed): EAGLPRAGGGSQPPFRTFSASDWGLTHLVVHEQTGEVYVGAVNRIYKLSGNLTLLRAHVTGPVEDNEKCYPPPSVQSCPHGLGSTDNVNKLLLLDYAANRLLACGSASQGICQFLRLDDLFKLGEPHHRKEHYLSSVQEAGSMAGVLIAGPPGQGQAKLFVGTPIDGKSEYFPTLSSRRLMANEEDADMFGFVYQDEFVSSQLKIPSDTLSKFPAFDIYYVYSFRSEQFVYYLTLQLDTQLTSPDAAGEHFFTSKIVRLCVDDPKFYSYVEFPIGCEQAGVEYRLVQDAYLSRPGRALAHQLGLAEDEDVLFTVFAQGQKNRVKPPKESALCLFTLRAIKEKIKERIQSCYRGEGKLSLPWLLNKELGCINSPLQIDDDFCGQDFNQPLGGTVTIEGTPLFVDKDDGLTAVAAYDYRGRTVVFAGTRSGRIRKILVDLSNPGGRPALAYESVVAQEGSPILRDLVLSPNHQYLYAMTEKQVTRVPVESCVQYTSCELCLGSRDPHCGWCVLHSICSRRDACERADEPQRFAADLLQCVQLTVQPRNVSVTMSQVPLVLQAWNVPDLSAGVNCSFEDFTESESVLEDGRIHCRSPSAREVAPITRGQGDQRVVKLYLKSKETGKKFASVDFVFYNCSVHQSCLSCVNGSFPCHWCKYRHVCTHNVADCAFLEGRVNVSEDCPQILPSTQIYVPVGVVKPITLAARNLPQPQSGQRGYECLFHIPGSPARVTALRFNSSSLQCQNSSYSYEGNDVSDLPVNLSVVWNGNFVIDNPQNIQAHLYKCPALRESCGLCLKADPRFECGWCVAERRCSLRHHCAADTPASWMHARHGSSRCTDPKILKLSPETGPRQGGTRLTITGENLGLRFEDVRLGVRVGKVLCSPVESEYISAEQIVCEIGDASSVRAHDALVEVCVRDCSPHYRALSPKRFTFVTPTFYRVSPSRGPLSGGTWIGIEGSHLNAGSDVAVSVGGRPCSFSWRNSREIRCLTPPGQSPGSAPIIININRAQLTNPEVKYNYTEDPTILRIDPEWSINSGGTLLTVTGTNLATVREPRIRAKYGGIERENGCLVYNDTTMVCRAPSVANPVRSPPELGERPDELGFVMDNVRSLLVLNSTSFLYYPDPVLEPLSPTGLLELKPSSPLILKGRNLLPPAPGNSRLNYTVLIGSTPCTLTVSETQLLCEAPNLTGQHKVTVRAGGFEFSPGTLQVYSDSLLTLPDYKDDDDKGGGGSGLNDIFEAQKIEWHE

The target in the first experiment is T1, human CD3ed-Fc (biotin-labeled human CD3 epsilon and human CD3 delta linked to a human antibody constant … (human, biotin-labeled (BirA co-expression); site not stated).
T1 construct: also called CD3 epsilon delta heterodimer fused with the antibody constant region
T1 chain 1: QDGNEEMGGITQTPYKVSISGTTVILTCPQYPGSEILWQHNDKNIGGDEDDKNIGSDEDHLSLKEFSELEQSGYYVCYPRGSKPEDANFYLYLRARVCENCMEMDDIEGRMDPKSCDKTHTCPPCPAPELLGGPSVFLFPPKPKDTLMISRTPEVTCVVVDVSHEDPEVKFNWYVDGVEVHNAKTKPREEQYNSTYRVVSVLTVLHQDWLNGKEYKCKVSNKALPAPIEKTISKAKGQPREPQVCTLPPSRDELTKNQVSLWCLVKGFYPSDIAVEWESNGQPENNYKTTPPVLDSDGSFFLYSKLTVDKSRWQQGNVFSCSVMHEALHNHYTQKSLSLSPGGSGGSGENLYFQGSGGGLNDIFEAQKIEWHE
T1 chain 2: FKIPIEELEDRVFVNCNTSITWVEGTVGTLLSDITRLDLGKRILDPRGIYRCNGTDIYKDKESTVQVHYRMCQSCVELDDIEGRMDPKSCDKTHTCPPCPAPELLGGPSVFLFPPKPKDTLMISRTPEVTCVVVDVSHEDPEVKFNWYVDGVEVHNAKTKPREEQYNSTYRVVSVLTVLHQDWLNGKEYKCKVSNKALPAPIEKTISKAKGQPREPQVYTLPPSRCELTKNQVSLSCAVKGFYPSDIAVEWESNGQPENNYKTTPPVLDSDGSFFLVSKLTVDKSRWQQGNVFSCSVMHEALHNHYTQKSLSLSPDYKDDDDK
As to the kind of experiment: BLI (Octet RED) as in Example 3.
In the case of B1, the binding result is recorded as “no binding”.

In the case of B2, the binding result is “no binding”.

Take B3: the binding result is on record as “no binding”.

In a further experiment the target is T2, soluble human IL-6R (human, UniProt P08887 20-357).
T2 construct: also called hsIL-6R; recombinant human IL6R
T2 sequence: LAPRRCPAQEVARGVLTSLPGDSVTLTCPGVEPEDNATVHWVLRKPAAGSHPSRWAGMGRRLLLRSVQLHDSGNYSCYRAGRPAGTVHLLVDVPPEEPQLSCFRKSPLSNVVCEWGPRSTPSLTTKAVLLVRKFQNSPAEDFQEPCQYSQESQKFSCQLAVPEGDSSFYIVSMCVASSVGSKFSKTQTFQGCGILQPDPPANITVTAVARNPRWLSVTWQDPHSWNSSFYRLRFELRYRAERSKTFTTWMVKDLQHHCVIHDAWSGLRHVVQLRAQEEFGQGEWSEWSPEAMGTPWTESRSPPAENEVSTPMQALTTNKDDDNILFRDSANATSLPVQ
In words: BLI (Octet) as in Example 3. (Biolayer interferometry detects binding as a change in optical thickness at a sensor tip.)
On to B4, for which the binding result is “binds”.

B5: the binding result was “binds”.

With B6, the binding result was “binds”.

Consider B7, for which the binding result is reported as “binds”.

As to B8, the binding result is recorded as “binds”.

B9: the binding result is “binds”.

A further experiment concerns the target T3, biotinylated plexin A1 (human, UniProt Q9UIW2 27-1253, biotin on the AviTag sequence (SEQ ID NO: 36)).
T3 construct: also called biotin-labeled human plexin A1; human plexin A1
As to the kind of experiment: BLI (Octet) as in Example 3.
With B10, the binding result is on record as “no binding”.

As to B11, the binding result is “no binding”.

In the case of B12, the binding result is given as “no binding”.

The target in a further experiment is T1, human CD3ed-Fc (biotin-labeled human …). In words: phage display: phage ELISA or panning on biotin-labeled human CD3ed-Fc (binding clone for human CD3). Background: In an ELISA, binding on a coated surface is turned into a signal by an enzyme label.
Consider B13, for which the binding result is on record as “binds”.

Take B14: the binding result is recorded as “binds”.

Turning to B15, the binding result is on record as “binds”.

A further experiment deals with T2, soluble human IL-6R. As to the kind of experiment: BLI (Octet HTX), molecule on Protein A biosensor, hsIL-6R as analyte, 30 degrees C. Here is the method:
The hsIL-6R binding evaluation of each molecule was conducted using Octet HTX (Pall ForteBio Corp.). Specifically, each molecule was bound to Biosensor/Protein A (ProA) (Pall ForteBio Corp., 18-5013), and hsIL-6R was allowed to act thereon, followed by binding evaluation at 30 degrees C.
For the molecule B16, the binding result was “no binding”.

Take B17: the binding result is given as “no binding”.

For the molecule B18, the binding result is “no binding”.

As to B19, the binding result was “no binding”.

The target of the next experiment is T2, soluble human IL-6R. As to the kind of experiment: BLI (Octet) as in Example 3, 30 degrees C or 25 degrees C.
For the molecule B20, the binding result was “no binding”.

As to B21, the binding result is given as “no binding”.

With B22, the binding result is “no binding”.

Turning to B23, the binding result is given as “no binding”.

As to B24, the binding result is reported as “no binding”.
